Drawing on publication PMC7734621, this text covers stoichiometry N for one substance.

For this test, the target named is Minerva virus protease (MVpro), NS6 3C-like protease of a GII.4 norovirus (Minerva virus (norovirus GII.4, 2006b variant)). The test can be described thus: SEC. In general terms: SEC sorts molecules by how far they enter the pores of the column.

The term stoichiometry N denotes the number of molecules, sites or subunits per partner or assembly. Consider “Minerva virus protease (MVpro), NS6 3C-like protease of a GII.4 norovirus (enzyme)”, for which the stoichiometry N came to 2.
